The record followed here is patent publication US20150351390A1, “COMPOSITIONS AND METHODS FOR AUXIN-ANALOG CONJUGATION” (PIONEER HI-BRED INTERNATIONAL, INC., priority 2012, published 2015).

B1: SbEES08587: GH3 protein, accession EES08587 (protein)
chain: MSTSPAVLDHDHGHHRLLSSVSPPTTTTDSPATAMPPRAPSSLPPTIPACDPHDGPASLQLIEDLTTHAGAIQQRVLREILAMNAGTDYLRGFLGAGAEGRDADELAATFKDRVPVVEYEDVKPYIERIANGAPSSLISSKTITELLTSSGTSGGQPKLMPSTEEELDRKTFLYNLLVPVMNKYVEGLDKGRCMYLLFVKPEITTASGLVARPVLTSYYKSRHFRERPDSPYTRYTSPNEAILCPDSAQSMYAQLLCGLARRGEVLRVGAVFASAFLRAVKFLEAHWRALCDDIRAGRVDASRVTDAACRDAVARVVARPDPALADAIAAECEGSSSSSWRGIVRRLWPRTKYIDVIVTGSMAQYIPLLEFYGGGLPLVSTMYASSECYFGINLRPLDPPEDVAYTLLPNMCYYEFIKVEKDGEEAREDGKVVDLVDVEAGGYYELLVTTFTGLYRYRVGDILQVSGFHNAAPQFRFVHRRNVVLSVDTDKTSEDDLLRAVTAAKRLLAPLGGATILSEYTAYADTASIPGHYVLFWELTPTPPMPGDGDTAARVMAACCAEVEAGLDAVYQRCRSRDRSVGPLEIRVVSTGAFDALMDLCVSHGSSVNQYKTPRCIKHPDAIAVLEARVVGRFFSDTVPHWEPFNVVDTAAAGAAATTTPSLNEGAT
modifications: Sorghum bicolor
B2: RcGH3-17: GH3 protein, accession XP_002531876 (protein, listed as Ricinus communis)
chain: MDGKKLEYKGEAALEEIEKLTEKADEVQESILREILIQNGQTEYLSKYIKGSKDVKEFKYCVPVTTYKDMYPYIQRIANGEDSSLITGRPITEMLCSSGTSAGEPKLMPSINEDLDRRTFIYNLVMPIMNQYISGLDEGKAMYLYFVKEEMSTPCGLPARTVLTSYYKSKHFKCRARDSFNDFTSPDQAILCKDSDQSMYCQLLSGLVYRHQVLRIGAVFASALLRAISFLERNWVHLCNDIRNGELDPMITDPECRSCMSMILSSPNPSLADEIEEICSRPSWKGILCLLWPRTKYIEAVVTGSMAQYVPSLKYYSERKLPLVCTMYASSECYFGVNLKPLSDPAEVSFTLMPNMCYFEFIPLGENGTLLMDVDEEEKVPIHKLVDLVHVRRGCYYELVVTTFAGLYRYRIGDVLQVTGFHNQAPQFRFICRRNVVLSIDNDKTNEEDLHKSISTAKKLLEPYNAILVEYTSYAETLVVPGHYVLYWEILHHSSVVNHNQTPLDAEVFQECCIAVEEELDYIYRRCRTHDKSIGPLEIRVVEPGTFEALMDLFIGQGGSINQYKTPRCIKSNAALMLLNSHVKASFFSARDPVWIP
B3: AIGH3-12 (protein, listed as Arabidopsis lyrata)
chain: MKPISDINESFEKQLKYLTSDVKQIQDNLLEEIITPNTKTEYLQRFLIGRFDKDLFKKNVPIVTYEDIKPYLDRVVNGESSDVISARPITGFLLSSGTSGGAQKMMPWNNKYLDNLTFIYDLRMQVITKHVKGVEEGKGMMFLFTKQESMTPSGLPARVATSSYFKSDYFKHRPSNWYYSYTSPDEVILCPNNTQSLYCHLLCGLVQRDEVVRTGSIFASVMVRAIEVLKNSWEELCSNIRSGHLSNWVTDLGCQSSVSLVLGGPRPELADTIEEICNQKSWKGIVKRLWPNTKYIETVVTGSMGQYVPMLNYYCNDLPLVSTTYGSSETTFGINLDPLCKPEDVSYTFMPNMSYFEFIPMDGDNNDVVDLEDVKLGCTYEPVVTNFAGLYRMRVGDIVLVTGFYNNAPQFKFVRRENVVLSIDSDKTNEEDLFKAVSQAKLVLESSGLDLKDFTSYADTSTFPGHYVVYLEVDTKEGEEKKTAQFELDEEALSMCCLVMEESLDNVYKRCRFKDGSIGPLEIRVVRQGTFISLMDFFISQGASTGQYKTPRCIKSGKALQVLETCVVAKFFSS
B4: OsGH3-6: GH3 protein, accession Q60EY1 (protein, listed as Oryza sativa)
chain: MAATAWGIRSSGIRGASPVMSACVSPAEVILGADHQQQMYCHLLCGLRRWDAVDCIRAPYAAALARALRLLQSKWRQLCDDLECGTVCADVVTDAAMRGAVQDGVLAGPCPELAGRVRRICERDDWRGVLRQLWPDARYISCVTTGTMEQYFPAIKHFAGEALPVLGTDYLASECAIGINLERTSPPEETTYVLLPRAAYFEFIPFDMDAAGRGAAAAEPVDIAGVEAGKTYELVATTFRGLYRYKVGDVVKIAGFHHSSPRLQFVTRAPPPQEHGEVLTERDVMAAMDTFQLMLKDGGEVIEFAAFIIDGDGGQRRRRCATIAVEVSNGSKLLDHERSAAFLRRCTAPLEGCLGGAYRLSRATGDVAPLEVAVVRPGTFDRLAEAAIRGGAPANQYKPPRSSGTGTSSMCCNPPWCAAAAQSLNQLLTSICLIVSLNQRQFLDRESNSGTDKVFISDSILNFQHWGGFSLRFDLQEESLTLYKDHPS
B5: VvGH3-6: GH3 protein, accession XP_002268278 (protein, listed as Vitis vinifera)
chain: MLLSCDPHDNEAGLMLLEDLTTNANQVQLEVLEEILTQNANTEYLRGYLDGHSDKGLFKKKVPIVNYEDIKPHIERIANGEPSRIISAQPITELLTSSGTSGGQPKLMPSTAEDLDRKTFFYNLLIPVMNKYVDGLDQGKGMYLLFIKPEISTPSGLMARPVLTSYYKSSNFRNRPFNPFNVYTSPDETILCLDSKQSMYCQLLCGLVQRDEVLRVGAVFASAFLRAIKFLEDHWRELCSNIRTGCVSDWITDPSCRNAVSSFLSKPQPDLADFIEFECNGESWEGIIKRLWPRTKYIEVIVTGSMAQYIPTLEFYSGGLPLVSTMYASSECYYGINLKPLSKPSDVSYTLLPNMAYFEFLPVQKNNGEVTQQVQCNGGCIKKEGERVEIEVVGLVDVKVGHYYELVVTTFTGLYRYRTGDILMVTGFYNNAPQFRFVQRRNVVLSIDTDKTNEEDLLKAVTQAKLLLEPYGFLLTEYTSYADTSSIPGHYVLFWELKTRGNNDLSEPDHTIMEQCCSTVEESLDSVYRRCRRRDNSIGPLEIRIVKPGTFDALMDFCVSQGSSVNQYKTPRCIKSKEAIKILDSRVVGKVFSKKVPFWEPFKMETK
B6: VvGH3-4: GH3 protein, accession XP_002263353 (protein, listed as Vitis vinifera)
chain: MEGKRLEYRGEEALKELEKFTAKADEVQENILKEIIARNCETEYLKKYMGGSKDVLEFKQSVPVITYKDIHPYIQRIANGEDSSLISGHPITEMLCSSGTSGGEPKMMPSIAEDLNRRTFLYNLIMPIMNQYIPGLDEGKAMFLYFVKAEMSTPCGLPARAVLTSYYKSKNFRCRVRDAFNDFTSPDQAILCTDSNQSMYCQLLAGLVHRHQVLRLGAVFASALLRAISFLERHWVHLCNDIRTGHLDSSITDPECRSSMSTILSSPNPHLADEIEEICSHPSWKGMLSQLWPRAKYIEAVITGSMAQYIPSLEYYSGGKLPLVCTMYASSECYFGVNMKPLCDPADVAFTLLPNMCYFEFIPLGENGTLLMDMDEEKGVPKEKLVDLVHVRLGCYYELVVTTFAGLNRYRIGDVLQVTGFHNRAPQFRFICRRNVVLSIDNDKTNEEDLHRSITMAKKLLEPYNALLVEYTSYADTSSLPGHYVLYWEITHCISTDSPSTPLDSKVLEECCIAVEEELDYIYRRCRTHDKSVGPLEIRLVQPGTFEDLMDLFISQGGSINQYKTPRCIKSSNALKLLNSNVEASFFSPRDPRWIP
B7: AIGH3-7 (protein, listed as Arabidopsis lyrata)
chain: VLEDLTSNVTQLQDNEILTLNANTNYLQSFFRGRFDKEIFKKNVPVVTYDDPSNVISAQPITGFVLSSGTSGGAQKMMPWNEKYLDSCMIFGCINVKNVEKGKAMMFYFTKLESITPSGLPARVASSSYLKSNYFKNRPSNWYYTYTSPDELTLCPDNKQNLYCHLLCGLVQRNEVTRMGSIFASVMKELWSNIRSGQLSEWITDIVANTIEKICNQKCWKGIVTRLWPKAKYIETIVTGSMVQYVPTLNYYSNDMLPLISTIYASSETQFGLNLNPMCKPEDVSYTFMPNVSYFEFIPVDGDKNNVVDLADVKLGCSYEAVVTNFRIRVGDILVVTGFHNKAPQFRFIRRDNVVLSIDLDKTNEDDLFKAVNRGKLTLDSSDLMLAMLISPLSRDKNKDKKSKKHIELKQETFSECCLLMEDSLDEVYKNCRFKEEWTFDSLMDFFISQGASIGQYKTPRCIKSAKALEVIEKMW

One data set in a line: LC-MS assay of GH3 conjugation of IAA with Asp or Glu. The conditions noted are these: conjugation of IAA with Asp by recombinant GH3 protein; IAA-Asp product by LC-MS. In kind it is biochemical. The essentials: (§1)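 Kinetic parameters come from Michaelis-Menten fits of initial velocities. Velocities reflect LC-MS quantification, against standards, of Asp or Glu conjugates formed by purified GH3 (44 to 164 μg/mL) with 5 mM ATP and MgCl2 at pH 8.0, 30° C.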
For the molecule B1, the “kcat (hrs−1) IAA-Asp” value was found to be 10.251 h⁻¹.
Still for that read-out and setting: next, B2: 4.366 h⁻¹; B3: 0.000 h⁻¹; B4: 0.000 h⁻¹.
Same read-out and setting: next, B5: 111.443 h⁻¹; B6: 3.873 h⁻¹; B7: 0.000 h⁻¹.

Staying with this data set, now noted: conjugation of IAA with Glu by recombinant GH3 protein; IAA-Glu product by LC-MS.
For B1, the “kcat (hrs−1) IAA-Glu” value amounted to 389.161 h⁻¹.
On the same count and under the same terms, next, B2: 10.433 h⁻¹.
The same measure, in the same setting: next, B3: 12.925 h⁻¹.
On the same count and under the same terms, for B4 the value was 0.000 h⁻¹.
For B5, the “kcat (hrs−1) IAA-Glu” value worked out at 505.272 h⁻¹.
Same read-out and setting: for B6 the value was 16.309 h⁻¹.
Still for that read-out and setting: next, B7: 0.000 h⁻¹.

The next data set in a line: LC-MS assay of GH3 conjugation of 2,4-D with Asp or Glu. The format is biochemical. The conditions noted are these: conjugation of 2,4-D with Asp by recombinant GH3 protein; 2,4-D-Asp product by LC-MS; 5 mM 2,4-D substrate. The essentials: as §1
In the case of B1, the “kcat (hrs−1) 2,4-D-Asp” value was 0.044 h⁻¹.
Still for that read-out and setting: next, B2: 0.000 h⁻¹.
The same measure, in the same setting: next, B3: 0.006 h⁻¹.
Same read-out and setting: next, B4: 0.000 h⁻¹.
With B5, the “kcat (hrs−1) 2,4-D-Asp” value was 0.385 h⁻¹.
Same read-out and setting: next, B6: 0.000 h⁻¹; B7: 0.000 h⁻¹.

Staying with this data set, now noted: conjugation of 2,4-D with Glu by recombinant GH3 protein; 2,4-D-Glu product by LC-MS; 5 mM 2,4-D substrate.
As to B1, the “kcat (hrs−1) 2,4-D-Glu” value came out at 0.554 h⁻¹.
Regarding B2, the “kcat (hrs−1) 2,4-D-Glu” value was determined as 0.027 h⁻¹.
Still for that read-out and setting: for B3 the value was 0.057 h⁻¹.
For the molecule B4, the “kcat (hrs−1) 2,4-D-Glu” value amounted to 0.000 h⁻¹.
On the same count and under the same terms, next, B5: 1.204 h⁻¹.
Consider B6, for which the “kcat (hrs−1) 2,4-D-Glu” value amounted to 0.018 h⁻¹.
On the same count and under the same terms, next, B7: 0.000 h⁻¹.
